Results on two molecules are retold here after patent US20170275376A1 (Chugai, published 2017).

One test deals with T1, anti-FX-arm of ACE910.
T1 construct: This is inferred from the parallel order 'anti-FIXa/FX' and 'Q499-z121/J327-z119' and from the AQ/AJ antibody names; also called anti-FX side; anti-FX-F(ab')2
Briefly: ELISA, hybridoma culture supernatant. The procedure:
(§1) Mice and rats were immunized with anti-FIXa-F(ab′)2 or anti-FX-F(ab′)2. Cells obtained from the spleen removed from the mice or rats or from rat lymph nodes were subjected to cell fusion with mouse myeloma cells by following general methods to produce the hybridomas. The culture supernatants of the hybridomas were evaluated by ELISA which detects the binding of ACE910 to the anti-FIXa-arm or the anti-FX-arm, and ultimately, mouse antibodies, AQ8 and AQ1, and rat antibody, AQ512, which bind only to the anti-FIXa-arm but not to the anti-FX-arm of ACE910, and rat antibodies, AJ540, AJ114, AJ521, AJ522, and AJ541, which bind only to the anti-FX-arm but not to the anti-FIXa-arm of ACE910 were selected. In addition, the nucleotide sequences of the variable regions of the AQ8 antibody or the AJ540 antibody were analyzed. The nucleotide sequences of the variable regions of AQ8 and AJ540, and amino acid sequences predicted therefrom were analyzed using GENETYX Ver.9 (GENETYX CORPORATION).
On the technique in general: An ELISA detects its analyte on a solid surface through an enzyme-linked reagent.

A further test has as its target T2, anti-FIXa-arm of ACE910.
T2 construct: This is inferred from the parallel order 'anti-FIXa/FX' and 'Q499-z121/J327-z119' and from the AQ/AJ antibody names; also called anti-FIXa side; anti-FIXa-F(ab')2
As to the kind of experiment: ELISA, hybridoma culture supernatant. How it is done: as §1

T1 sequence (VH, as listed by the source, chain 1 of 2): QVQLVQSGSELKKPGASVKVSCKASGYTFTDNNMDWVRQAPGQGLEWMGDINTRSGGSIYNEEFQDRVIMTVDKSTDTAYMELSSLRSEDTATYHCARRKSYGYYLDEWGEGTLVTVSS
T1 sequence (VL, as listed by the source, chain 2 of 2): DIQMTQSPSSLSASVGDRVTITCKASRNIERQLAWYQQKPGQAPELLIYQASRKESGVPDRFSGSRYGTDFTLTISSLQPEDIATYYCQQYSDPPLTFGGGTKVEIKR
T2 sequence (VH, as listed by the source, chain 1 of 2): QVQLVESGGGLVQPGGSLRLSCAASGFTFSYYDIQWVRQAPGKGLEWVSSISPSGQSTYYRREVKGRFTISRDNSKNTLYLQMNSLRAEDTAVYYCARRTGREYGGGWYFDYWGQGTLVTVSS
T2 sequence (VL, as listed by the source, chain 2 of 2): as the sequence (VL, as listed by the source, chain 2 of 2) above

B1: mouse antibody AQ8 (antibody, V domains shown)
VH: EVNLVESGGGLVQPGGSMSLSCAASGFTFTDYYMSWVRQPPGKALEWLALIRNKANGYTTEYSASVKGRFTISRDNSQSILYLQMNALRAEDSATYYCARDSYYSYDGYAMDYWGQGTSVTVSS
VL: DIQMTQSPASLAASVGETITITCQASENIYFSLAWYQQKQGKSPQLLIYNTDSLKDGVPSRFSGSGSGTQYSMKINSMQPEDTATYFCRQSYDFPWTFGGGTKLEIK
notes: Mouse hybridoma antibody, tested as culture supernatant in ELISA; also called AQ8 antibody
For the molecule B1, the binding result with anti-FX-arm of ACE910 is given as “no binding”.

B2: rat antibody AJ540 (antibody, V domains shown)
VH: QIQLVQSGPELKKPGESVKISCKASGYTFTDYAMHWVKQVPGKGLKWMGWINTYTGKPTYADDFKGRFVFSLEASASTANLQISNLKNEDTANVFCAREGGGYYWYFDFWGPGTMVTVSS
VL: DIVMTQSPTSMSISVGDRVTMNCKANQNVDFNVDWYQQKTGQSPKLLIYKASNRYTGVPDRFTGSGSGTDFTFTISNMQAEDLAVYYCMQSNSFPLTFGSGTNLEIK
notes: Rat hybridoma antibody, tested as culture supernatant in ELISA; also called AJ540 antibody
In the case of B2, the binding result with anti-FIXa-arm of ACE910 is reported as “no binding”.
